Legend:
soluble ErbB4 ectodomain [1] = molecular target: T1, soluble ErbB4 ectodomain (UniProt Q15303)
T1 sequence: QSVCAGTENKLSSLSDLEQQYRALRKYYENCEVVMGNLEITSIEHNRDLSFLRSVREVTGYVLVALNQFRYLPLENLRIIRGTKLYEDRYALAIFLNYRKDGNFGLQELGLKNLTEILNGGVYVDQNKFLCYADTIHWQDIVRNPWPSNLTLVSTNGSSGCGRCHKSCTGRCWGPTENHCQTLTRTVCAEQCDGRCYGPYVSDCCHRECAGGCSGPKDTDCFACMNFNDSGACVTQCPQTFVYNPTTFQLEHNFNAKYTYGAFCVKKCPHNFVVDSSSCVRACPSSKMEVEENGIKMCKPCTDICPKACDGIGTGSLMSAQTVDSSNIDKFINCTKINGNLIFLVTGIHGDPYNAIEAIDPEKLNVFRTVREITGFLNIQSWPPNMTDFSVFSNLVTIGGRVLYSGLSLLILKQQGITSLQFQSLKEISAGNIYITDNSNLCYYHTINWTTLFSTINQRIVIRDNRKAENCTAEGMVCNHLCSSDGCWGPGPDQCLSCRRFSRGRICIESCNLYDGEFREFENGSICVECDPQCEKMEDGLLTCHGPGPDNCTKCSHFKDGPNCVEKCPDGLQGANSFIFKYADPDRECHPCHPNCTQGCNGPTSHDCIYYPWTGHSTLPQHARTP

soluble ErbB4 ectodomain [2] = molecular target: T1, soluble ErbB4 ectodomain; remark: listed apart in the source
[3] = molecular target: T2, His-tagged extracellular subdomain IV of ErbB4 (Homo sapiens, isoform JM-a, UniProt Q15303); experiment: Western blot; conditioned media of COS-7 transfectants expressing the His-tagged subdomains, blotted under non-reducing conditions, mAb 1479 as the primary antibody; anti-pentaHis as control of expression; settings: one partner purified
T2 construct: ErbB4 extracellular subdomain IV; construct limits are in File S1; source: COS-7, transiently transfected, in conditioned medium; not shown: His tag, C-terminal, kept
T2 sequence (Q15303 whole entry, looked up, tested part not stated, canonical isoform): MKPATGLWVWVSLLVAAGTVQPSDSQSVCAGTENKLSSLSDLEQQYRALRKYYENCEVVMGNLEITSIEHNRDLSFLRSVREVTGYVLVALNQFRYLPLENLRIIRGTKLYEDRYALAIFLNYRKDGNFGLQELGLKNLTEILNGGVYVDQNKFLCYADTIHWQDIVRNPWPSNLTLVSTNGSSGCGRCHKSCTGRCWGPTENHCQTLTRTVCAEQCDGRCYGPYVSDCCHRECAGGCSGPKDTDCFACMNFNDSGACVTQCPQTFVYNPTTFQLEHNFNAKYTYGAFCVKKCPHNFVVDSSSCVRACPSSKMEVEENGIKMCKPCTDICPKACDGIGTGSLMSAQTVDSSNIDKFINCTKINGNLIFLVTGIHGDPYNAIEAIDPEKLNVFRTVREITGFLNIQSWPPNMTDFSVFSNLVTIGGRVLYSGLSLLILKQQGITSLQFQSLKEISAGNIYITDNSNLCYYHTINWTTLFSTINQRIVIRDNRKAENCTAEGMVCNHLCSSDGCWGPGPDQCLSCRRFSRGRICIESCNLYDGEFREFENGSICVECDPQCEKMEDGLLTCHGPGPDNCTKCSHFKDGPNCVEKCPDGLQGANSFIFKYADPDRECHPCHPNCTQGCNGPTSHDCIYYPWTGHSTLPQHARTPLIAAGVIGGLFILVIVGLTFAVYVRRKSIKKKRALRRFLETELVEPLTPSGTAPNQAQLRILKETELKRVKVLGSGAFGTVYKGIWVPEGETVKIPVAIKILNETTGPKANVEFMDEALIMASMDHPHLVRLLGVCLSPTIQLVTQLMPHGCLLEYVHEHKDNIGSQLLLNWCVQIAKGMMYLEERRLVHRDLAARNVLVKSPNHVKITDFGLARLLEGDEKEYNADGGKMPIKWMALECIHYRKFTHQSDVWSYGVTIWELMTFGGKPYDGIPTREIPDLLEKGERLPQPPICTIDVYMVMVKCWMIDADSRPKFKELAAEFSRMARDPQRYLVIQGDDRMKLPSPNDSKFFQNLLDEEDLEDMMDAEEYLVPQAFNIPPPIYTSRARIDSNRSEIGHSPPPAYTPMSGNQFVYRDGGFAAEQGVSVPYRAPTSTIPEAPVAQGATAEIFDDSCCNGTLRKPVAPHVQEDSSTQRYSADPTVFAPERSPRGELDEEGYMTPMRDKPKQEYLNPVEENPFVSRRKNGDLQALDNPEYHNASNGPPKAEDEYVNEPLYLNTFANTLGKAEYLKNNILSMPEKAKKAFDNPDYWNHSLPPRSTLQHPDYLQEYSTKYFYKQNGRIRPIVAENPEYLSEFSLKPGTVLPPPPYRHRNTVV

relative proportion of the 80 kD carboxy-terminal fragment of the total ErbB4 in T-47D xenografts (Western blot with E-200), control IgG against mAb 1479 (soluble ErbB4 ectodomain [1]): 74% | relative proportion of the 100 kD ectodomain fragment of total ErbB4 in T-47D xenografts (Western blot with mAb 1464), control IgG against mAb 1479 (soluble ErbB4 ectodomain [2]): 9% | binding result [3]: binds
B1: anti-ErbB4 monoclonal antibody mAb 1479 (antibody, V domains shown)
VH: QVTLKESGPGILQPSQTLSLTCSFSGFSLSTYGIGVGWIRQPSGKGLEWLAHIWWNDNKYYNIALRSRLTISKDTSNNQVFLKIASVDTADTATYYCARIPDDHYFDYWGQGTTLTVSS
VL: DVLMTQTPLSLPVSLGDQASISCRSSQSIVHSNGNTYLEWYLQKPGQSPKLLIYKVSNRFSGVPDRFSGSGSGTDFTLKISRVEAEDLGVYYCFQGSHVPWTFGGGTKLEIK
notes: constant part of the IgG2 isotype; mouse monoclonal antibody, IgG2 isotype

From PMC3382207, “Proteolytic Processing of ErbB4 in Breast Cancer” (PLoS ONE, 2012)
